Peptide text beside a SMILES is read from it. * marks the point of attachment. X1 = CC1(C)C(/C=C/C=C/C=C/C=C2/N(CCCCCC(=O)NCCN3C(=O)CC(*)C3=O)c3ccc4ccccc4c3C2(C)C)=[N+](CCCCS(=O)(=O)[O-])c2ccc3ccccc3c21
Tests used:
[1] = Follow up 7-days repeat i.v. toxicity in male B6D2F1 mice (GLP); format: in vivo
Experimental: The purpose of this GLP study performed at MSK was to assess the acute and delayed toxicity on the male reproductive system of mice of a repeat administration of pHLIP ICG at different concentrations. The pHLIP ICG was administered once/day for 7 consecutive days.
Throughout the study, body weights, clinical signs, and histopathology were collected.

[2] = system: MDA-MB-231, 4T1, A549, LLC, M4A4, HeLa, UM-UC3 and LNCaP tumors; test: Tumor targeting, NIR fluorescence imaging in different tumor models; format: in vivo, athymic female nude mice; settings: 24 h after single i.v. 0.5 mg/kg, 8 tumor models, Stryker clinical imaging system, skin removed
Experimental: Targeting of murine and human tumors was shown in 8 different tumor models in athymic female nude mice (strain Hsd Athymic Nude-Foxn1nu) ranging in age from 5 to 6 weeks (obtained from Envigo RMS, Inc). The following tumors were established by subcutaneous injection of 1 x 10^6 cells/0.1 ml/flank in flanks of athymic nude mice: HeLa (humans cervical adenocarcinoma), M4A4 (human epithelial carcinoma), 4T1 (murine breast tumor), A549 (human lung carcinoma), LLC (murine Lewis Lung carcinoma), UM-UC3 (human urinary bladder cancer), and 4 x 10^6 cells/0.1 ml/flank of LNCaP tumor (human prostate cancer). Human MDA-MB-231 (breast adenocarcinoma) tumors were established by injections of 1 x 10^6 cells/0.05 ml in the mammary fat pad. […] Finally, surgery was carried out under fluorescence-guidance to remove tumor and to image the tumor bed using the Stryker SPY-PHI handheld clinical imaging system.

[3] = Stability of pHLIP ICG formulations in solution (analytical HPLC); format: physicochemical; settings: protected from light
Experimental: Stability studies were performed with pHLIP ICG formulations in PBS and PBS containing 5% DMSO or 5% Ethanol (vol/vol). The tumor targeting capability in mice is independent of formulation. Formulation of pHLIP ICG in PBS/5% Ethanol was used in PoC animal studies, and in toxicity studies on mice, rats and dogs. For the PBS/5%DMSO formulation 1 mg of the lyophilized powder of pHLIP ICG was dissolved in 75 µl of DMSO (to make 3.2 mM solution), then 10 µl of 3.2 mM stock was mixed with 190 µl PBS to make a 0.16 mM solution of pHLIP ICG (5% DMSO). For the PBS/5%Ethanol formulation, the lyophilized powder of pHLIP ICG was dissolved at a concentration of 1.6 mg/ml in PBS/5% Ethanol solution. Finally, the formulation selected for human use was prepared by dissolving the lyophilized powder of pHLIP ICG at a concentration of 0.8 mg/ml in PBS. All formulations were kept at room temperature and protected from light. The aliquots were taken at 0.5 or 1, 3, 6, 24, 48 and 72 hours (102 hrs for pHLIP ICG dissolved in PBS) for analytical HPLC analysis using a Zorbax SB-C18 column (4.6 x 250 mm, 5 µm) with a binary solvent system using a […] water and acetonitrile gradient with 0.05% TFA over 25 min. […] Formulation of pHLIP ICG in PBS was stable in solution for 4 days kept at RT.

[4] = Biodistribution, %ID/g estimated from tissue/organ homogenates; format: in vivo, BALB/c mice; settings: BALB/c, mouse, small and large intestines, bone, skin, muscle, prostate, iv, 0.5 mg/kg; all time points; estimate; read-out: Amount in small and large intestines, bone, skin and muscle (and prostate)
Experimental: The fluorescence signals in organs and tissue were also measured in the tissue/organ homogenates and compared with the signals from the control tissue/organ homogenates (collected from control mice) mixed with known amounts of pHLIP ICG. Samples of about 100 mg of tissue were homogenized with 2.5x (about 250 µL) volumes of DMSO using BioMasher II disposable homogenizers (DiagnoCine, LLC). 30 µl of each homogenate was placed into a 384-well plate and imaged using an Odyssey IR scanner (Li-Cor Biosciences). Tissue homogenates of control mice mixed with known concentrations of pHLIP ICG were used to establish the calibration curve.

[5] = system: 4T1 tumor; test: Biodistribution and kinetics, ex vivo fluorescence imaging of organs; format: in vivo, BALB/c mice; settings: post-administration, decay after 6 h
Experimental: BALB/cAcNHsd mice ranging in age from 5 to 6 weeks obtained from Envigo RMS, Inc. were used in the study. Mouse mammary 4T1 cancer cells were subcutaneously implanted in the right flank (8 x 10^5 cells/0.1 mL/flank) of adult female or male mice. The triple-negative 4T1 tumor model closely mimics stage IV of human breast cancer. When tumors reached […] in diameter, single tail vein injections of 0.5 mg/kg of pHLIP ICG in sterile PBS, or PBS with 5% DMSO or 5% Ethanol (vol:vol) (volume of the injection was 100 μl) were performed. Animals were euthanized 5 min, 1, 2, 4, 6, 16, 26 and 48 hrs after pHLIP ICG administration. Several animals were used for each time point plus seven control animals (no pHLIP ICG administration). Tumor, muscles, skin, heart, lungs, liver, spleen, kidneys, brain, pancreas, bone, stomach, small and large intestines were collected, and imaged immediately after necropsy. […] The background signal was determined by introducing an intensity threshold. All the pixels with intensity above the set threshold were counted and the average intensity per pixel was calculated. For organs for which the highest illumination light intensity produced a saturated image, the medium illumination light intensity images were analyzed, then converted to a comparison using experimentally established conversion curves.

CC(C)C[C@H](NC(=O)[C@H](Cc1ccc(O)cc1)NC(=O)[C@H](C)NC(=O)[C@H](CCCNC(=N)N)NC(=O)[C@H](Cc1c[nH]c2ccccc12)NC(=O)[C@@H]1CCCN1C(=O)[C@H](CC(N)=O)NC(=O)[C@H](CCC(N)=O)NC(=O)[C@H](CC(=O)O)NC(=O)[C@H](CC(=O)O)NC(=O)[C@H](CSC1CC(=O)N(CCNC(=O)CCCCCN2/C(=C/C=C/C=C/C=C/C3=[N+](CCCCS(=O)(=O)[O-])c4ccc5ccccc5c4C3(C)C)C(C)(C)c3c2ccc2ccccc32)C1=O)NC(=O)[C@H](C)N)C(=O)N[C@@H](CC(=O)O)C(=O)N[C@@H](CC(C)C)C(=O)N[C@@H](CC(C)C)C(=O)N[C@@H](Cc1ccccc1)C(=O)N1CCC[C@H]1C(=O)N[C@H](C(=O)N[C@@H](CC(=O)O)C(=O)N[C@H](C(=O)N[C@@H](CC(C)C)C(=O)N[C@@H](CC(C)C)C(=O)N[C@@H](CC(C)C)C(=O)N[C@@H](CC(=O)O)C(=O)N[C@@H](CC(C)C)C(=O)N[C@@H](CC(C)C)C(=O)N[C@@H](Cc1c[nH]c2ccccc12)C(=O)N[C@@H](C)C(=O)O)[C@@H](C)O)[C@@H](C)O (stereo partly shown) [pHLIP ICG] (H-AC(X1)DDQNPWRAYLDLLFPTDTLLLDLLWA-OH)
Toxicity finding, male reproductive system ([1]; male B6D2F1 mice, 4.92, 7.38, 12.3 mg/kg/day i.v. for 7 days): well tolerated, with no indication of germ cell degeneration or other toxicity to the male reproductive system
NOAEL ([1]; male and female mice, 7 days repeated i.v. administration): above 12.3 mg/kg/day
Tumor targeting [2]: Excellent tumor targeting
Stability (purity) of all formulations ([3]; PBS, PBS/5% DMSO, PBS/5% Ethanol, up to 72 hours at room temperature, analytical HPLC): > 95%
Time stable in solution ([3]; reconstituted in PBS (0.8 mg/ml), room temperature, analytical HPLC Zorbax SB-C18): 4 days
tissue uptake [4]: < 2 %ID/g
Time of maximum signal in the liver [5]: 1 h

From publication PMC7591906, “pHLIP ICG for delineation of tumors and blood flow during fluorescence-guided surgery” (Scientific Reports, 2020)
